# Values joined by “and” are separate entries in the source; they are usually repeats but may differ in a detail not shown here. Identical values can stand only once. Bridge positions count the residues as written; N and C are the ends. Square brackets hold non-standard residues; d marks the D form. Primed or numbered codes have the meaning given here. Ends that are not written are not given here. MCA = alpha-methylhydrocinnamic acid (2-methyl-3-phenylpropanoic acid); PEG 20 kDa″ = 20 kDa polyethylene glycol (PEG); Abu(4-SO3H) = N[C@@H](CCS(=O)(=O)O)C(=O)O; PEG 20 kDa = 20 kDa polyethylene glycol; PhLac = O=C(O)[C@@H](O)Cc1ccccc1
# B1: [PLA^6, C^8(5kDaPEG), E^9]Glucagon(aa6-29)-NH2 (peptide)
# peptide: [PhLac]TC(PEG 5 kDa)EYSKYLDSRRAQDFVQWLMNT-NH2
# B2: 3.4kDaPEG-dimer[C^5, E^9]Glucagon(aa5-29)-NH2 (peptide)
# peptide: C(PEG 3.4 kDa)FTSEYSKYLDSRRAQDFVQWLMNT-NH2
# modifications: also: dimer: Cys5 of two chains joined by 3.4 kDa PEG
# B3: [PLA^6, C^8(20kDaPEG), E^9]Glucagon(aa6-29)-NH2 (peptide)
# peptide: [PhLac]TC(PEG 20 kDa)EYSKYLDSRRAQDFVQWLMNT-NH2
# B4: [PLA^6, E^9, C^24(20kDaPEG)]Glucagon(aa6-29)-NH2 (peptide)
# peptide: [PhLac]TSEYSKYLDSRRAQDFVC(PEG 20 kDa)WLMNT-NH2
# B5: [PLA^6, E^9, C^11(20kDaPEG)]Glucagon(aa6-29)-NH2 (peptide)
# peptide: [PhLac]TSEYC(PEG 20 kDa)KYLDSRRAQDFVQWLMNT-NH2
# B6: [MCA^6, E^9, C^24(20kDaPEG)]Glucagon(aa6-29)-NH2 (peptide)
# peptide: [MCA]TSEYSKYLDSRRAQDFVC(PEG 20 kDa)WLMNT-NH2
# B7: [PLA^6, E^9,C^24(1.2 kDaPEG)]Glucagon(aa6-29)-NH2 (peptide)
# peptide: [PhLac]TSEYSKYLDSRRAQDFVC(PEG 1.2 kDa)WLMNT-NH2
# B8: [C^5(1.2kDaPEG), E^9]Glucagon(aa5-29)-NH2 (peptide)
# peptide: C(PEG 1.2 kDa)FTSEYSKYLDSRRAQDFVQWLMNT-NH2
# B9: [C^5(5kDaPEG), E^9]Glucagon(aa5-29)-NH2 (peptide)
# peptide: C(PEG 5 kDa)FTSEYSKYLDSRRAQDFVQWLMNT-NH2
# B10: [PLA^6, C^8(1.2kDaPEG), E^9]Glucagon(aa6-29)-NH2 (peptide)
# peptide: [PhLac]TC(PEG 1.2 kDa)EYSKYLDSRRAQDFVQWLMNT-NH2
# B11: [C^5(20kDaPEG), E^9]Glucagon(aa5-29)-NH2 (peptide)
# peptide: C(PEG 20 kDa)FTSEYSKYLDSRRAQDFVQWLMNT-NH2
# B12: [H1A2E3, E9, E16K20(Lactam), GLP(23-32)]G(1-29) (peptide)
# peptide: HAEGTFTSEYSKYLDEQAAKEFIAWLMDT-NH2
# modifications: lactam 16-20; N-terminus assumed
# SMILES: CC[C@H](C)[C@H](NC(=O)[C@H](Cc1ccccc1)NC(=O)[C@H](CCC(=O)O)NC(=O)[C@@H]1CCCCNC(=O)CC[C@H](NC(=O)[C@H](CC(=O)O)NC(=O)[C@H](CC(C)C)NC(=O)[C@H](Cc2ccc(O)cc2)NC(=O)[C@H](CCCCN)NC(=O)[C@H](CO)NC(=O)[C@H](Cc2ccc(O)cc2)NC(=O)[C@H](CCC(=O)O)NC(=O)[C@H](CO)NC(=O)[C@@H](NC(=O)[C@H](Cc2ccccc2)NC(=O)[C@@H](NC(=O)CNC(=O)[C@H](CCC(=O)O)NC(=O)[C@H](C)NC(=O)[C@@H](N)Cc2c[nH]cn2)[C@@H](C)O)[C@@H](C)O)C(=O)N[C@@H](CCC(N)=O)C(=O)N[C@@H](C)C(=O)N[C@@H](C)C(=O)N1)C(=O)N[C@@H](C)C(=O)N[C@@H](Cc1c[nH]c2ccccc12)C(=O)N[C@@H](CC(C)C)C(=O)N[C@@H](CCSC)C(=O)N[C@@H](CC(=O)O)C(=O)N[C@H](C(N)=O)[C@@H](C)O
# B13: [A2E3, E9, E16K20(Lactam), GLP(23-32)]G(2-29) (peptide)
# peptide: AEGTFTSEYSKYLDEQAAKEFIAWLMDT-NH2
# modifications: lactam 15-19; N-terminus assumed
# SMILES: CC[C@H](C)[C@H](NC(=O)[C@H](Cc1ccccc1)NC(=O)[C@H](CCC(=O)O)NC(=O)[C@@H]1CCCCNC(=O)CC[C@H](NC(=O)[C@H](CC(=O)O)NC(=O)[C@H](CC(C)C)NC(=O)[C@H](Cc2ccc(O)cc2)NC(=O)[C@H](CCCCN)NC(=O)[C@H](CO)NC(=O)[C@H](Cc2ccc(O)cc2)NC(=O)[C@H](CCC(=O)O)NC(=O)[C@H](CO)NC(=O)[C@@H](NC(=O)[C@H](Cc2ccccc2)NC(=O)[C@@H](NC(=O)CNC(=O)[C@H](CCC(=O)O)NC(=O)[C@H](C)N)[C@@H](C)O)[C@@H](C)O)C(=O)N[C@@H](CCC(N)=O)C(=O)N[C@@H](C)C(=O)N[C@@H](C)C(=O)N1)C(=O)N[C@@H](C)C(=O)N[C@@H](Cc1c[nH]c2ccccc12)C(=O)N[C@@H](CC(C)C)C(=O)N[C@@H](CCSC)C(=O)N[C@@H](CC(=O)O)C(=O)N[C@H](C(N)=O)[C@@H](C)O
# B14: [PLA6, K12E16(lactam), GLP(23-32)]G(6-29) (peptide)
# peptide: [PhLac]TSDYSKYLDEQAAKDFIAWLMDT-NH2
# modifications: lactam 7-11; N-terminus assumed
# SMILES: CC[C@H](C)[C@H](NC(=O)[C@H](Cc1ccccc1)NC(=O)[C@H](CC(=O)O)NC(=O)[C@H](CCCCN)NC(=O)[C@H](C)NC(=O)[C@H](C)NC(=O)[C@H](CCC(N)=O)NC(=O)[C@@H]1CCC(=O)NCCCC[C@H](NC(=O)[C@H](CO)NC(=O)[C@H](Cc2ccc(O)cc2)NC(=O)[C@H](CC(=O)O)NC(=O)[C@H](CO)NC(=O)[C@@H](NC(=O)[C@@H](O)Cc2ccccc2)[C@@H](C)O)C(=O)N[C@@H](Cc2ccc(O)cc2)C(=O)N[C@@H](CC(C)C)C(=O)N[C@@H](CC(=O)O)C(=O)N1)C(=O)N[C@@H](C)C(=O)N[C@@H](Cc1c[nH]c2ccccc12)C(=O)N[C@@H](CC(C)C)C(=O)N[C@@H](CCSC)C(=O)N[C@@H](CC(=O)O)C(=O)N[C@H](C(N)=O)[C@@H](C)O
# B15: [PLA6, E16, GLP(23-32)]G(6-29) (peptide)
# peptide: [PhLac]TSDYSKYLDEQAAKEFIAWLMNT-NH2
# modifications: N-terminus assumed
# SMILES: CC[C@H](C)[C@H](NC(=O)[C@H](Cc1ccccc1)NC(=O)[C@H](CCC(=O)O)NC(=O)[C@H](CCCCN)NC(=O)[C@H](C)NC(=O)[C@H](C)NC(=O)[C@H](CCC(N)=O)NC(=O)[C@H](CCC(=O)O)NC(=O)[C@H](CC(=O)O)NC(=O)[C@H](CC(C)C)NC(=O)[C@H](Cc1ccc(O)cc1)NC(=O)[C@H](CCCCN)NC(=O)[C@H](CO)NC(=O)[C@H](Cc1ccc(O)cc1)NC(=O)[C@H](CC(=O)O)NC(=O)[C@H](CO)NC(=O)[C@@H](NC(=O)[C@@H](O)Cc1ccccc1)[C@@H](C)O)C(=O)N[C@@H](C)C(=O)N[C@@H](Cc1c[nH]c2ccccc12)C(=O)N[C@@H](CC(C)C)C(=O)N[C@@H](CCSC)C(=O)N[C@@H](CC(N)=O)C(=O)N[C@H](C(N)=O)[C@@H](C)O
# B16: [PLA6, E16K20(lactam), GLP(23-32)]G(6-29) (peptide)
# peptide: [PhLac]TSDYSKYLDEQAAKEFIAWLMDT-NH2
# modifications: lactam 11-15; N-terminus assumed
# SMILES: CC[C@H](C)[C@H](NC(=O)[C@H](Cc1ccccc1)NC(=O)[C@H](CCC(=O)O)NC(=O)[C@@H]1CCCCNC(=O)CC[C@H](NC(=O)[C@H](CC(=O)O)NC(=O)[C@H](CC(C)C)NC(=O)[C@H](Cc2ccc(O)cc2)NC(=O)[C@H](CCCCN)NC(=O)[C@H](CO)NC(=O)[C@H](Cc2ccc(O)cc2)NC(=O)[C@H](CC(=O)O)NC(=O)[C@H](CO)NC(=O)[C@@H](NC(=O)[C@@H](O)Cc2ccccc2)[C@@H](C)O)C(=O)N[C@@H](CCC(N)=O)C(=O)N[C@@H](C)C(=O)N[C@@H](C)C(=O)N1)C(=O)N[C@@H](C)C(=O)N[C@@H](Cc1c[nH]c2ccccc12)C(=O)N[C@@H](CC(C)C)C(=O)N[C@@H](CCSC)C(=O)N[C@@H](CC(=O)O)C(=O)N[C@H](C(N)=O)[C@@H](C)O
# B17: [PLA6, K12E16(Lactam), D28,CEX-C40(20 kDa)]G(6-40) (peptide)
# peptide: [PhLac]TSDYSKYLDERRAQDFVQWLMDTGPSSGAPPPSC(PEG 20 kDa)-NH2
# modifications: lactam 7-11
# B18: [PLA6, E9,E16K20(Lactam), C24(20 kDa)]G(6-29) (peptide)
# peptide: [PhLac]TSEYSKYLDERRAKDFVC(PEG 20 kDa″)WLMNT-NH2
# modifications: lactam 11-15
# B19: [desHis^1, Leu^4, hCys^9(SO3-), Phe^25, Leu^27] Glucagon-NH2 (peptide)
# peptide: SQLTFTS[Abu(4-SO3H)]YSKYLDSRRAQDFVQFLLNT-NH2
# modifications: N-terminus assumed
# SMILES: CC(C)C[C@H](NC(=O)[C@H](Cc1ccc(O)cc1)NC(=O)[C@H](CCCCN)NC(=O)[C@H](CO)NC(=O)[C@H](Cc1ccc(O)cc1)NC(=O)[C@H](CCS(=O)(=O)O)NC(=O)[C@H](CO)NC(=O)[C@@H](NC(=O)[C@H](Cc1ccccc1)NC(=O)[C@@H](NC(=O)[C@H](CC(C)C)NC(=O)[C@H](CCC(N)=O)NC(=O)[C@@H](N)CO)[C@@H](C)O)[C@@H](C)O)C(=O)N[C@@H](CC(=O)O)C(=O)N[C@@H](CO)C(=O)N[C@@H](CCCNC(=N)N)C(=O)N[C@@H](CCCNC(=N)N)C(=O)N[C@@H](C)C(=O)N[C@@H](CCC(N)=O)C(=O)N[C@@H](CC(=O)O)C(=O)N[C@@H](Cc1ccccc1)C(=O)N[C@H](C(=O)N[C@@H](CCC(N)=O)C(=O)N[C@@H](Cc1ccccc1)C(=O)N[C@@H](CC(C)C)C(=O)N[C@@H](CC(C)C)C(=O)N[C@@H](CC(N)=O)C(=O)N[C@H](C(N)=O)[C@@H](C)O)C(C)C
# Biological target: T1, human glucagon receptor (human, UniProt P47871 26-477)
# T1 construct: whole, on cells; cAMP assay: transfected HEK293 cells
# T1 sequence (P47871 26-477): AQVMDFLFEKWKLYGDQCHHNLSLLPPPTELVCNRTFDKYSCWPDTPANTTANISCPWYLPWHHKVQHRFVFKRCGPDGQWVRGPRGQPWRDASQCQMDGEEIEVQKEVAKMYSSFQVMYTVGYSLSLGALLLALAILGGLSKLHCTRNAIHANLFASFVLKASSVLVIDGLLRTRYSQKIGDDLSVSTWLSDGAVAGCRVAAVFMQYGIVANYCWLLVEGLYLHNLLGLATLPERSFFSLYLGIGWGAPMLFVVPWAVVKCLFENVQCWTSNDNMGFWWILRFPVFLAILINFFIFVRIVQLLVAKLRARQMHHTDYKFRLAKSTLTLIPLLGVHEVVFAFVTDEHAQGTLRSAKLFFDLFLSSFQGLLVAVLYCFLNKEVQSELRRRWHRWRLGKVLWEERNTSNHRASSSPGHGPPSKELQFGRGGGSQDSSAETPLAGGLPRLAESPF
# Assay: SPA competition vs 125I-glucagon, receptor membranes
row,Binder,IC50 [nM]
1,B1,948
2,B2,435
3,B3,303
4,B4,90
5,B5,776
6,B6,208
7,B7,4.7
8,B8,1080
9,B9,634
10,B10,220
11,B11,331

# Biological target: T1, human glucagon receptor
# Assay: cell-based or functional assay
row,Binder,Glucagon antagonism IC50 (inhibit 0.2-0.8 nM glucagon) [nM]
1,B12,2150
2,B13,423
3,B14,169
4,B15,64.5

# Biological target: T2, human GLP-1 receptor (human, UniProt P43220 24-463)
# Assay: cell-based or functional assay
row,Binder,GLP-1 agonism EC50 [nM]
1,B12,0.017
2,B13,9.8
3,B16,51.2
4,B15,85.6

# Biological target: T1, human glucagon receptor
# Assay: cell-based or functional assay
# Remark: another data set of the same source
row,Binder,"IC50 (cAMP, inhibit 0.2 mM Glucagon)"
1,B1,216 nM
2,B2,1340 nM
3,B3,236 nM and 92 nM
4,B4,126 nM
5,B5,664 nM
6,B7,18 nM
7,B8,2280 nM
8,B9,1610 nM
9,B11,976 nM

# Biological target: T2, human GLP-1 receptor
# Assay: cell-based or functional assay
# Remark: another data set of the same source
row,Binder,GLP-1 agonism EC50 [nM]
1,B17,657
2,B18,825

# Biological target: T1, human glucagon receptor
# Assay: cell-based or functional assay
# Remark: another data set of the same source
Binder,cAMP Induction EC50 [nM],cAMP Inhibition IC50 [nM]
B19,1610,4460

# Source: patent US20110098217A1 (INDIANA UNIVERSITY RESEARCH AND TECHNOLOGY, published 2011)
